# Measurements as given in article PMC5132288, “Identification, Heterologous Expression, and Functional Characterization of Bacillus subtilis YutF, a HAD Superfamily 5'-Nucleotidase with Broad Substrate Specificity” (PLoS ONE, 2016).
# Columns and labels:
# Assay type in all cases: biochemical, Bacillus subtilis
# purified protein = substrate: O=[N+]([O-])c1ccc(OP(=O)(O)O)cc1; test: purified protein; details: 100 mM Tris-HCl pH 8.9, 5 mM MgCl2, 25°C
# [1] = substrate: Nc1nc2c(ncn2[C@@H]2O[C@H](COP(=O)(O)O)[C@@H](O)[C@H]2O)c(=O)[nH]1; test: colorimetric inorganic phosphate release, nonlinear regression; details: 100 mM MES pH 6.0, 5 mM MgCl2, 37°C
# Text: (§1) colorimetric inorganic phosphate release, nonlinear regression on Ht-YutF (recombinant YutF, N-terminal hexahistidine tag)
# [2] = substrate: O=c1[nH]c(=O)c2ncn([C@@H]3O[C@H](COP(=O)(O)O)[C@@H](O)[C@H]3O)c2[nH]1; test: as above; details: 100 mM MES pH 6.0, 5 mM MgCl2, 37°C
# Text: as §1
# [3] = substrate: O=P(O)(O)OC[C@H]1O[C@H](OP(=O)(O)OP(=O)(O)O)[C@H](O)[C@@H]1O; test: as above; details: 100 mM MES pH 6.0, 5 mM MgCl2, 37°C
# Text: as §1
protein,measurement,setting,value
"Ht-YutF (recombinant YutF, N-terminal hexahistidine tag) (Bacillus subtilis subsp. subtilis str. 168) (protein) KTYKGYLIDLDGTMYNGTEKIEEACEFVRTLKDRGVPYLFVTNNSSRTPKQVADKLVSFDIPATEEQVFTTSMATAQHIAQQKKDASVYVIGEEGIRQAIEENGLTFGGENADFVVVGIDRSITYEKFAVGCLAIRNGARFISTNGDIAIPTERGLLPGNGSLTSVLTVSTGVQPVFIGKPESIIMEQAMRVLGTDVSETLMVGDNYATDIMAGINAGMDTLLVHTGVTKREHMTDDMEKPTHAIDSLTEWIPYI",Km,purified protein,1640 ± 60 µM
same,kcat,purified protein,61 ± 1 s⁻¹
same,kcat/Km,purified protein,37000 M⁻¹ s⁻¹
same,Km,[1],6650 ± 1260 µM
same,kcat,[1],0.06 ± 0.01 s⁻¹
same,kcat/Km,[1],9 M⁻¹ s⁻¹
same,Km,[2],1530 ± 110 µM
same,kcat,[2],0.31 ± 0.01 s⁻¹
same,kcat/Km,[2],210 M⁻¹ s⁻¹
same,Km,[3],1270 ± 100 µM
same,kcat,[3],0.17 ± 0.01 s⁻¹
same,kcat/Km,[3],130 M⁻¹ s⁻¹
